Data published in article PMC3783180 (Nucleic Acids Research, 2013).

Experiments:
[1] = molecular target: T1, S. cerevisiae Dhh1 residues 30-425 (DEAD-box core, RecA1 and RecA2) (S. cerevisiae, UniProt P39517 30-425); experiment: pull-down
T1 sequence: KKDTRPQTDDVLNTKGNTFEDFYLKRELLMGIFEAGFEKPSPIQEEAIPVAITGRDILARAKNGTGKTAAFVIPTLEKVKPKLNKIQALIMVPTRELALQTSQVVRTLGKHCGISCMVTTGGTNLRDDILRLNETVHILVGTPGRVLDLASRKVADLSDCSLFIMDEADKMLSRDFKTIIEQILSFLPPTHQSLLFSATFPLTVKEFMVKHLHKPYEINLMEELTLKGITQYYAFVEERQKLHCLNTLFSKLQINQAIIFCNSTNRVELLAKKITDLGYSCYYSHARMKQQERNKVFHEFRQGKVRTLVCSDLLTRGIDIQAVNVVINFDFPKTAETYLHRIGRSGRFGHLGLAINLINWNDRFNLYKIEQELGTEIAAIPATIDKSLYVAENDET

[2] = molecular target: T2, S. cerevisiae Dhh1 residues 46-422 K234D, V238D (S. cerevisiae, UniProt P39517 46-422, K234D | V238D); experiment: crystal structure
T2 sequence: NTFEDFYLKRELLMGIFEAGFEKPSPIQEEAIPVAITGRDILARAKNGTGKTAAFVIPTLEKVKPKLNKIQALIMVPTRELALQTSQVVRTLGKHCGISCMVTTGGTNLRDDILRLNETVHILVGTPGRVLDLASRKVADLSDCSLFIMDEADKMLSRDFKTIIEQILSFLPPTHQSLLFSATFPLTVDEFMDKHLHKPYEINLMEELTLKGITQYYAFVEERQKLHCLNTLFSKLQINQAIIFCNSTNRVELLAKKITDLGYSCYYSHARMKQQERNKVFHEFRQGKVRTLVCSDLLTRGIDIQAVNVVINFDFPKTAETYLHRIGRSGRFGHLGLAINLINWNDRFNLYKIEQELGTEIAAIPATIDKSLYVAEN

[3] = molecular target: T1, S. cerevisiae Dhh1 residues 30-425 …; experiment: SEC
[4] = molecular target: T3, S. cerevisiae Dhh1 residues 251-425 (RecA2 domain) (S. cerevisiae, UniProt P39517 251-425); experiment: ITC
T3 sequence: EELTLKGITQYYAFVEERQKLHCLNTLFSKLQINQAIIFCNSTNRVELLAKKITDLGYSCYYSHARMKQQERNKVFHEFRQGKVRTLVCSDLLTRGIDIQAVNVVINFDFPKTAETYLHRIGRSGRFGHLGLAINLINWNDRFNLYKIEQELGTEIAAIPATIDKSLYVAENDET

[5] = molecular target: T1, S. cerevisiae Dhh1 residues 30-425 …; experiment: ITC

B1: GST-tagged S. cerevisiae Pat1 residues 1-114 (N-terminal domain) (domain or fragment)
chain: MSFFGLENSGNARDGPLDFEESYKGYGEHELEENDYLNDETFGDNVQVGTDFDFGNPHSSGSSGNAIGGNGVGATARSYVAATAEGISGPRTDGTAAAGPLDLKPMESLWSTAP
B1: binds [1].

B2: S. cerevisiae Pat1 residues 5-79, as crystallized (domain or fragment)
chain: GLENSGNARDGPLDFEESYKGYGEHELEENDYLNDETFGDNVQVGTDFDFGNPHSSGSSGNAIGGNGVGATARSY
B2: binds [2].

B3: GST-tagged S. cerevisiae Pat1 residues 1-56 (domain or fragment)
chain: MSFFGLENSGNARDGPLDFEESYKGYGEHELEENDYLNDETFGDNVQVGTDFDFGN
B3: binds [1].

QQNDYNQNRGEHIDWQDDDVSKIKQQEDFDFQRNLGMFNK (domain or fragment) [S. cerevisiae Edc3 residues 77-116, as crystallized]: binds [2].

B4: S. cerevisiae Pat1 residues 1-114, as in the purified complex with Dhh1 30-425 used for limited proteolysis (domain or fragment)
chain: MSFFGLENSGNARDGPLDFEESYKGYGEHELEENDYLNDETFGDNVQVGTDFDFGNPHSSGSSGNAIGGNGVGATARSYVAATAEGISGPRTDGTAAAGPLDLKPMESLWSTAP
B4: binds [3].

B5: His6-SUMO-tagged S. cerevisiae Pat1 residues 5-79 (domain or fragment)
chain: GLENSGNARDGPLDFEESYKGYGEHELEENDYLNDETFGDNVQVGTDFDFGNPHSSGSSGNAIGGNGVGATARSY
A Kd [4] of 32 nM was found for B5 in this work.

B6: S. cerevisiae Edc3 residues 77-158, as used for ITC (domain or fragment)
chain: QQNDYNQNRGEHIDWQDDDVSKIKQQEDFDFQRNLGMFNKKDVFAQLKQNDDILPENRLQGHNRKQTQLQQNNYQNDELVIP
A Kd [5] of 200 nM was found for B6 in this work.
